Data: publication PMC11643744, “New Conjugates of Vancomycin with Cell-Penetrating Peptides—Synthesis, Antimicrobial Activity, Cytotoxicity, and BBB Permeability Studies” (Molecules, 2024)
Peptide text beside a SMILES is read from it. * marks the point of attachment. Propioloyl = C#CC(=O)*

Legend:
PAMPA-BBB assay = test: PAMPA-BBB assay
Description: This assay utilized a 96-well plate assembly consisting of a filter plate pre-coated with polar brain lipids (donor plate) and a receiver plate (acceptor plate). The phospholipid mixture used to coat the membrane was extracted from porcine polar brain lipids, with the following composition: 12.6% phosphatidylcholine, 33.1% phosphatidylethanolamine, 18.5% phosphatidylserine, 4.1% phosphatidylinositol, 0.8% phosphatidic acid, and 30.9% of other compounds, including cerebrosides, sulfatides, and pigments.
In each well of the donor filtration plate (Multiscreen Filter Plate, PVDF with a pore size of 0.45 µm), 5 µL of the phospholipid mixture in n-dodecane (20 mg/mL) was carefully applied to form the artificial membrane. After coating, 200 µL of phosphate-buffered saline (PBS at pH 7.4) containing 5% dimethyl sulfoxide (DMSO) as a co-solvent, and the test compound (at a concentration of 20 µM) was added to each well of the donor plate (in triplicate). […] The plate lid was then replaced and the resulting assembled donor–acceptor plates were incubated at room temperature for 20 h. After this time, the donor plate was removed and solutions from each well of both acceptor and donor plates were collected for further analysis. The concentrations of the tested compounds were determined by LC-MS. The analysis was conducted by UHPLC-MS system (Shimadzu Nexera X2 with LCMS-2020 detector) using a ReproSil Pure 120 ODS-3 column (Dr. Maisch GmbH, 100 × 2 mm, 2.4 µm particle size) with several gradients of ACN with 0.1% FA and 0.05% TFA at a flow rate of 0.3 mL/min. The eluted solution was monitored by an ESI-MS detector operated in a selected ion monitoring mode (SIM). […] CE=CD×VD+CA×VA/VD+VA

[1] = test system: normal human fibroblasts, BJ line (CRL-2522); test: Neutral red cytotoxicity assay
Method: Normal human fibroblasts, BJ line (CRL-2522™), Eagle’s Minimum Essential Medium (EMEM), and fetal bovine serum (FBS) were obtained from ATCC (Manassas, VA, USA). Cells were grown following ATCC guidelines in an EMEM medium supplemented with 10% FBS at 37 °C in a humidified atmosphere of 95% air and 5% CO2 in a HeraCell 150 incubator (Heraeus, Hanau, Germany).
The assay was performed as per previously published protocols with slight modifications. In brief, BJ cells were plated in 96-well tissue culture plates (Nest Scientific Biotechnology, Wuxi, China) at a density of 6 × 10^3 cells per well and allowed to attach for 24 h in EMEM supplemented with 10% FBS. After the incubation period, the medium was removed, and 10% dimethyl sulfoxide (DMSO)-treated cells (Sigma-Aldrich, St. Louis, MO, USA) were used as a positive control, while nontreated cells served as a negative control.
The cells were treated with peptides suspended in EMEM medium supplemented with 10% FBS and incubated for 24 h at 37 °C in a humidified atmosphere of 95% air and 5% CO2. After the incubation, the supernatants were discarded and replaced with 100 µL of non-supplemented EMEM containing 0.33% neutral red (Sigma-Aldrich) diluted 1:40. The cells were incubated for an additional 2 h at 37 °C. Following incubation, the neutral red medium was removed, and the cells were washed with 100 µL of phosphate-buffered saline (PBS) per well.
To extract the dye into the solution, the cells were treated with 150 µL of a solution containing 50% ethanol (Alchem, Torun, Poland), 49% distilled H2O, and 1% acetic acid (Alchem, Torun, Poland) and incubated under shaking at 37 °C for 10 min. Absorbance was measured at 540 nm using a Synergy H1 plate reader (BioTek Instruments, Winooski, VT, USA). The assay was performed in triplicate to ensure reproducibility.

Structure (SMILES) | R, mass retention (PAMPA-BBB assay; 20 h incubation, mean ± SEM) [%] | further results
C#CC(=O)N[C@@H](Cc1ccc(O)cc1)C(=O)N[C@@H](C)C(=O)N[C@@H](CCCNC(=N)N)C(=O)N[C@@H](C)C(=O)N[C@@H](C)C(=O)N[C@@H](C)C(=O)N[C@@H](CCCNC(=N)N)C(=O)N[C@@H](CCC(N)=O)C(=O)N[C@@H](C)C(=O)N[C@@H](CCCNC(=N)N)C(=O)N[C@@H](C)C(N)=O [compound 9] (Propioloyl-YARAAARQARA-NH2) | 6.7 ± 1.5 | 
CN[C@H](CC(C)C)C(=O)N[C@H]1C(=O)N[C@@H](CC(N)=O)C(=O)N[C@H]2C(=O)N[C@H]3C(=O)N[C@H](C(=O)N[C@H](C(=O)NCCOCCOCCOCCn4cc(C(=O)N[C@@H](Cc5ccc(O)cc5)C(=O)N[C@@H](C)C(=O)N[C@@H](CCCNC(=N)N)C(=O)N[C@@H](C)C(=O)N[C@@H](C)C(=O)N[C@@H](C)C(=O)N[C@@H](CCCNC(=N)N)C(=O)N[C@@H](CCC(N)=O)C(=O)N[C@@H](C)C(=O)N[C@@H](CCCNC(=N)N)C(=O)N[C@@H](C)C(N)=O)nn4)c4cc(O)cc(O)c4-c4cc3ccc4O)[C@H](O)c3ccc(c(Cl)c3)Oc3cc2cc(c3O[C@@H]2O[C@H](CO)[C@@H](O)[C@H](O)[C@H]2O[C@H]2C[C@](C)(N)[C@H](O)[C@H](C)O2)Oc2ccc(cc2Cl)[C@H]1O [compound 10] | 2.0 ± 0.6 | concentration above which cytotoxicity was shown ([1]; 24 h): above 16 µg/mL; Papp at 20 h, 20 µM (PAMPA-BBB assay; pig, PAMPA, pH 7.4, Pe, effective permeability coefficient, 20 h incubation, 20 µM, pH 7.4, mean ± SEM): 0.01 ± 0.003 ×10⁻⁶ cm/s
CN[C@H](CC(C)C)C(=O)N[C@H]1C(=O)N[C@@H](CC(N)=O)C(=O)N[C@H]2C(=O)N[C@H]3C(=O)N[C@H](C(=O)N[C@H](C(=O)O)c4cc(O)cc(O)c4-c4cc3ccc4O)[C@H](O)c3ccc(c(Cl)c3)Oc3cc2cc(c3O[C@@H]2O[C@H](CO)[C@@H](O)[C@H](O)[C@H]2O[C@H]2C[C@](C)(NC(=O)CCOCCOCCOCCOCCn3cc(C(=O)N[C@@H](Cc4ccc(O)cc4)C(=O)NCC(=O)N[C@@H](CCCNC(=N)N)C(=O)N[C@@H](CCCCN)C(=O)N[C@@H](CCCCN)C(=O)N[C@@H](CCCNC(=N)N)C(=O)N[C@@H](CCCNC(=N)N)C(=O)N[C@@H](CCC(N)=O)C(=O)N[C@@H](CCCNC(=N)N)C(=O)N[C@@H](CCCNC(=N)N)C(=O)N[C@@H](CCCNC(=N)N)C(N)=O)nn3)[C@H](O)[C@H](C)O2)Oc2ccc(cc2Cl)[C@H]1O [compound 6] | 77.7 ± 0.3 | 
CN[C@H](CC(C)C)C(=O)N[C@H]1C(=O)N[C@@H](CC(N)=O)C(=O)N[C@H]2C(=O)N[C@H]3C(=O)N[C@H](C(=O)N[C@H](C(=O)NCCOCCOCCOCCn4cc(C(=O)N[C@@H](Cc5ccc(O)cc5)C(=O)NCC(=O)N[C@@H](CCCNC(=N)N)C(=O)N[C@@H](CCCCN)C(=O)N[C@@H](CCCCN)C(=O)N[C@@H](CCCNC(=N)N)C(=O)N[C@@H](CCCNC(=N)N)C(=O)N[C@@H](CCC(N)=O)C(=O)N[C@@H](CCCNC(=N)N)C(=O)N[C@@H](CCCNC(=N)N)C(=O)N[C@@H](CCCNC(=N)N)C(N)=O)nn4)c4cc(O)cc(O)c4-c4cc3ccc4O)[C@H](O)c3ccc(c(Cl)c3)Oc3cc2cc(c3O[C@@H]2O[C@H](CO)[C@@H](O)[C@H](O)[C@H]2O[C@H]2C[C@](C)(N)[C@H](O)[C@H](C)O2)Oc2ccc(cc2Cl)[C@H]1O [compound 5] | 8.7 ± 3.8 | 
O=C(O)Cc1ccccc1Nc1c(Cl)cccc1Cl [Diclofenac, reference compound] |  | R, mass retention (PAMPA-BBB assay; PAMPA, 20 h, 20 µM, pH 7.4): 12.0 ± 3.3%; Papp at 20 h, 20 µM (PAMPA-BBB assay; PAMPA, pH 7.4): 3.44 ± 0.1 ×10⁻⁶ cm/s
CN[C@H](CC(C)C)C(=O)N[C@H]1C(=O)N[C@@H](CC(N)=O)C(=O)N[C@H]2C(=O)N[C@H]3C(=O)N[C@H](C(=O)N[C@H](C(=O)NCCOCCOCCOCCn4cc(C(=O)N[C@@H](CCCNC(=N)N)C(=O)N[C@@H](CCCNC(=N)N)C(=O)N[C@@H](CCCNC(=N)N)C(=O)N[C@@H](CCCNC(=N)N)C(=O)N[C@@H](CCCNC(=N)N)C(=O)N[C@@H](CCCNC(=N)N)C(=O)N[C@@H](CCCNC(=N)N)C(=O)N[C@@H](CCCNC(=N)N)C(=O)N[C@@H](CCCNC(=N)N)C(N)=O)nn4)c4cc(O)cc(O)c4-c4cc3ccc4O)[C@H](O)c3ccc(c(Cl)c3)Oc3cc2cc(c3O[C@@H]2O[C@H](CO)[C@@H](O)[C@H](O)[C@H]2O[C@H]2C[C@](C)(N)[C@H](O)[C@H](C)O2)Oc2ccc(cc2Cl)[C@H]1O [compound 15] | 2.7 ± 0.9 | 
CN[C@H](CC(C)C)C(=O)N[C@H]1C(=O)N[C@@H](CC(N)=O)C(=O)N[C@H]2C(=O)N[C@H]3C(=O)N[C@H](C(=O)N[C@H](C(=O)O)c4cc(O)cc(O)c4-c4cc3ccc4O)[C@H](O)c3ccc(c(Cl)c3)Oc3cc2cc(c3O[C@@H]2O[C@H](CO)[C@@H](O)[C@H](O)[C@H]2O[C@H]2C[C@](C)(NC(=O)CCC(=O)NCCSSCCn3cc(C(=O)N[C@@H](Cc4ccc(O)cc4)C(=O)NCC(=O)N[C@@H](CCCNC(=N)N)C(=O)N[C@@H](CCCCN)C(=O)N[C@@H](CCCCN)C(=O)N[C@@H](CCCNC(=N)N)C(=O)N[C@@H](CCCNC(=N)N)C(=O)N[C@@H](CCC(N)=O)C(=O)N[C@@H](CCCNC(=N)N)C(=O)N[C@@H](CCCNC(=N)N)C(=O)N[C@@H](CCCNC(=N)N)C(N)=O)nn3)[C@H](O)[C@H](C)O2)Oc2ccc(cc2Cl)[C@H]1O [compound 8] | 31.5 ± 1.5 | 
CN[C@H](CC(C)C)C(=O)N[C@H]1C(=O)N[C@@H](CC(N)=O)C(=O)N[C@H]2C(=O)N[C@H]3C(=O)N[C@H](C(=O)N[C@H](C(=O)O)c4cc(O)cc(O)c4-c4cc3ccc4O)[C@H](O)c3ccc(c(Cl)c3)Oc3cc2cc(c3O[C@@H]2O[C@H](CO)[C@@H](O)[C@H](O)[C@H]2O[C@H]2C[C@](C)(NC(=O)CCOCCOCCOCCOCCn3cc(C(=O)N[C@@H](CCCNC(=N)N)C(=O)N[C@@H](CCCNC(=N)N)C(=O)N[C@@H](CCCNC(=N)N)C(=O)N[C@@H](CCCNC(=N)N)C(=O)N[C@@H](CCCNC(=N)N)C(=O)N[C@@H](CCCNC(=N)N)C(=O)N[C@@H](CCCNC(=N)N)C(=O)N[C@@H](CCCNC(=N)N)C(=O)N[C@@H](CCCNC(=N)N)C(N)=O)nn3)[C@H](O)[C@H](C)O2)Oc2ccc(cc2Cl)[C@H]1O [compound 16] | 37.3 ± 4.8 | 
CN[C@H](CC(C)C)C(=O)N[C@H]1C(=O)N[C@@H](CC(N)=O)C(=O)N[C@H]2C(=O)N[C@H]3C(=O)N[C@H](C(=O)N[C@H](C(=O)NCCSSCCn4cc(C(=O)N[C@@H](Cc5ccc(O)cc5)C(=O)NCC(=O)N[C@@H](CCCNC(=N)N)C(=O)N[C@@H](CCCCN)C(=O)N[C@@H](CCCCN)C(=O)N[C@@H](CCCNC(=N)N)C(=O)N[C@@H](CCCNC(=N)N)C(=O)N[C@@H](CCC(N)=O)C(=O)N[C@@H](CCCNC(=N)N)C(=O)N[C@@H](CCCNC(=N)N)C(=O)N[C@@H](CCCNC(=N)N)C(N)=O)nn4)c4cc(O)cc(O)c4-c4cc3ccc4O)[C@H](O)c3ccc(c(Cl)c3)Oc3cc2cc(c3O[C@@H]2O[C@H](CO)[C@@H](O)[C@H](O)[C@H]2O[C@H]2C[C@](C)(N)[C@H](O)[C@H](C)O2)Oc2ccc(cc2Cl)[C@H]1O [compound 7] | 23.8 ± 4.9 | 
C[S+](C)[O-] [DMSO, dimethyl sulfoxide, reference compound] |  | cell viability [1]: approximately 21%
